According to the supplement of paper PMC12042874:
± gives the uncertainty stated by the source.

experiment: amyloid nucleation score (Sup35N fusion, yeast selection) (log enrichment); library NNK1; higher = more nucleation; inactive = no reads after selection
Procedure, shortened: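 After 24 hours of induction with 100 μM copper sulfate, psi-negative yeast expressing peptides of 20 random codons fused to Sup35N were grown for 7 days at 30°C on medium lacking adenine and uracil. Input and output plasmid inserts were sequenced with Illumina, and sequences with under 100 input reads were discarded. Scores for nucleation are the DiMSum log enrichment of output over input reads, centred on the mode score of non-aggregating sequences.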

Substance | amyloid nucleation score
TDSAVRDWTRR | 0.532 ± 0.79
TDSCYHCNLYMYHSS | 0.723 ± 0.9
TDSEVAFVNGTNSQRWFFGW | 1.07 ± 0.53
TDVMSHGSAETGWCFLMSAF | 0.124 ± 0.7
TDYIHLSIMIDFLGFTFQDR | 1.46 ± 0.43
TEGTYDNSSCHSDALGECLW | 0.281 ± 0.33
TFCLLSINLEFINVLRLFKS | 3.58 ± 0.12
TFECIIWFLGATVMSMQLFI | 1.93 ± 0.62
TFFCTYTYLWLICIIGQYYF | 3.44 ± 0.11
TFGSVGYI | 0.116 ± 0.45
TFGTKRRLGL | 1.47 ± 0.5
TFHNSYLYGTRNVWMLYSVR | 3.47 ± 0.091
TFIAGAI | -0.44 ± 0.37
TFIFAGDIT | 1.38 ± 0.17
TFLTCYRPGPIDNSWRIVSM | 1.1 ± 0.41
TFMLATDGV | 0.595 ± 0.69
TFMNRLPMNLDLLIGLTCNL | 0.492 ± 0.38
TFPGSHLFTFLMMEGSLNHG | 0.694 ± 0.64
TFQLKMWEHVVLPDVSMAST | 0.669 ± 0.48
TFRRFGYTELYCGENSLLEC | -0.036 ± 0.84
TFSLCKWVHSANKGLVQMTF | 0.265 ± 0.41
TFSWYRLRSVMGLVGNAAMI | 0.31 ± 0.61
TFTCMPLLWLIFS | 6.029 ± 0.057
TFTDS | 0.176 ± 0.75
TFTLNFCGLQF | 7.124 ± 0.059

Substance | amyloid nucleation score
TFVGLRVSAHRTQWALGDT | -1.51 ± 2.4
TFVLV | 0.332 ± 0.74
TFVLYGCDRKVFRRNVVTAS | 0.316 ± 0.35
TFVVFFCWLGS | 5.12 ± 0.093
TGDDSYDVLLVGLVKTSGVY | -0.234 ± 0.34
TGDLGRTGKVTLGTLEDSKI | -0.694 ± 0.56
TGLLLLIRNICYCLNLQLWG | 0.271 ± 0.53
TGLLSR | 1.33 ± 0.9
TGLSWVYSFRIEYVKVGFY | 0.426 ± 0.9
TGPKRLTDNREFRKF | -1.01 ± 2.7
TGRAPSVLHNKR | -0.842 ± 0.64
TGSLVFLTLTLLLVCYLPIT | 0.302 ± 0.43
TGTPYLLHLNWNLGSGMSGT | 0.451 ± 0.2
TGWLWYQHRWSDTWLPGTMR | 2.04 ± 0.15
THFVLE | 0.53 ± 0.28
THLVTCKGGLSMPDLVYRHV | 0.183 ± 0.28
THMGRTLSCFGMMSWSSDVA | 5.88 ± 0.065
THSIF | inactive
THSSGINVTPPDVCSLITLT | -0.159 ± 1.2
THVIRVGNQRSLRVFSRGVS | 1.32 ± 0.41
THVSDFLWDVNVSGNNTCSR | 1.14 ± 0.37
THWLNRTGCVRTHPVQSGKE | -1.09 ± 1
TIDIV | 2.28 ± 0.13
TIGLCAMYSAARLLV | 0.717 ± 0.93
TIGPSGNLEGCVLSVGASNI | -1.35 ± 1.2

Substance | amyloid nucleation score
TIIVDDGWRAYSRLS | 0.22 ± 0.71
TIRARMVCLNCQMVR | 3.54 ± 0.079
TISGLFLSRLYSKTMGGC | 1.89 ± 0.62
TISSLLFI | -0.252 ± 0.47
TIVELFYDRSLR | 1.17 ± 0.33
TIVSDGAQDFQHHS | inactive
TIWVEKLWDIYI | inactive
TIYTSSGVVMALVHRLHLVA | -1.1 ± 0.68
TKGFLSNGFLVWPVCIVILW | 0.387 ± 0.77
TKILRP | 0.33 ± 0.22
TKMVWASALWAHSPVMY | 0.724 ± 1.2
TKNVLLTYGHPMLDMFAVVY | inactive
TKPMIMSTFSEFCIPCTMRL | 0.182 ± 0.55
TKVGFFQRLGYEQVCNCKML | 0.244 ± 0.49
TKWLLFLVRTRHVMMCGGVM | inactive
TLCINWKPFP | 0.308 ± 0.38
TLCQNSGKFCMYTWLSVYVD | 0.423 ± 0.26
TLDLWNVRFC | -0.057 ± 1.4
TLFPVRNTMMFLESYS | -0.742 ± 0.41
TLGAYQSCRGNVIMGQGTFV | 0.266 ± 0.46
TLGPAWNVKFAWVFSFLVCI | 0.933 ± 0.7
TLIGFWPTRSFSSAVRYNPN | -0.116 ± 1
TLIWSCARHWV | 1.44 ± 0.22
TLLSVTYSCIRMPVPMAYRS | 4.42 ± 0.085
TLQNNLTFPDCLGLRCGSHV | 5.03 ± 0.085

Substance | amyloid nucleation score
TLQTTWLKNLGDLSSSREAS | -0.184 ± 0.41
TLRCDFLPRNKF | -0.595 ± 1.4
TLRSTWFRMCHTISA | 0.441 ± 0.25
TLVLYVKRCWESGLISNECF | -0.699 ± 1.5
TLYPHTGEGGKRLDLGCLSR | 1.39 ± 0.48
TMFLVSRDFRGIVLYWITTF | -0.364 ± 0.78
TMSFSFF | 0.855 ± 0.28
TMYWITQKVEKSSHMVCRVT | 2.61 ± 0.078
TNINSSTDKRLPTET | -0.013 ± 0.5
TNRPLVLTDNVNKSLKMRLP | 0.638 ± 0.27
TNSPKKGMNGYGFNATVWTS | 0.413 ± 0.9
TNTFFLTILHPRFVKMGPCW | 4.55 ± 0.1
TNVVRVSLCFYMY | 8.776 ± 0.069
TNYDFMVCCFKPSMAYGKCM | -0.354 ± 0.63
TPFVMIKDGKADFVILNVYH | 7.077 ± 0.055
TPGNVG | 0.514 ± 0.26
TPLKEHLLNVVRMLGKIDCD | 0.177 ± 0.42
TPSMKWFPKLLVLVSSTRHY | -0.51 ± 0.44
TPSTQLALWAIYFHRRLFES | -0.54 ± 1.3
TPTSSIPTPPRFPALTC | -0.72 ± 0.41
TQIAESYLVQANNSAEATAA | -0.32 ± 1.4
TQSCF | 0.074 ± 0.84
TQSTLGSMTIASDYCTTE | 1.42 ± 0.34
TRALVFRQYYIAPVHCYYLG | 3.54 ± 0.19
TRGTPFEYLATGG | 0.607 ± 0.71

Substance | amyloid nucleation score
TRLCWFWFNA | 0.066 ± 0.41
TRLLSYFDTRRELNCKVYYN | -0.053 ± 0.66
TRPLPWTQP | 0.242 ± 0.47
TRQNMFGIHHPWYNRRIS | -0.458 ± 0.42
TRTESVMVLWRRMAVGGCGR | 0.362 ± 0.65
TRTNELF | 0.498 ± 0.33
TRVEFEQGVVFGELYSVFRV | 0.351 ± 0.39
TRVGLVPSLGDRSDNYIVRI | 0.087 ± 0.39
TRWCVRERVSFKRAGQCDRV | inactive
TRWIRYTFRFS | 1.61 ± 0.13
TSAVQIVTLQLVLSWMRYHM | 1.02 ± 0.28
TSAVSSCDFRKRWCCSSFHW | 0.665 ± 0.24
TSCFGVWRHVLSRHSFRTSV | 4.17 ± 0.13
TSDGHFSSQVDSVDESKVGE | -0.534 ± 0.46
TSEDMC | -1.18 ± 2.1
TSFVSETGFTWVCVFLVAGT | 0.616 ± 1.1
TSGFKLGRSGGYVCRS | 1.41 ± 0.78
TSHAVFNTVINLVVFVDQHC | 8.111 ± 0.055
TSILAKNIIYCHYVGFPLGC | 5.97 ± 0.093
TSIMRVTILLISGGRLDVFL | -0.896 ± 1
TSLCMIHYVK | -0.069 ± 1.1
TSNCGTSLIDHSVRLLMLQR | -0.163 ± 0.49
TSNNLFKRALVGDYNKVAYR | 0.572 ± 0.75
TSPTYAYCYCLSTNRRQKCL | -0.957 ± 1.1
TSRSSVFRVAFHCGGSDSLV | 0.039 ± 0.43

Substance | amyloid nucleation score
TSSDCLLDSSIFNVGKFWYV | 0.019 ± 0.53
TSSFFTDIDFNG | -0.363 ± 0.7
TSSWDSPCYQEAVFIGGYYI | 0.619 ± 0.47
TTALFWSRRPSFGDLYRGFN | 3.86 ± 0.082
TTCGCKMHVSAHR | 0.425 ± 1.1
TTCSVVRDFYSLIFCTKCPY | 4.03 ± 0.063
TTLNEELYSLVVSRDWGDSN | inactive
TTLWLVPYVC | 0.529 ± 0.58
TTMIRSYFREDYGQGPLMSW | 0.51 ± 1.2
TTRAHEVDTYLYFHFGVGRT | 2.84 ± 0.17
TTRCVFSPDNVDTDY | inactive
TTSRAWFYL | -0.353 ± 1
TTTNCRI | 0.057 ± 0.23
TTVLRGLKTP | -0.825 ± 1.5
TTVPSNV | -0.189 ± 1.7
TTYRCNVKYQYFMFNDIEFF | 3.54 ± 0.21
TVEYNRPFCRFIFCGSGYRH | -1.2 ± 0.92
TVGSIQKAEYWIHGYMATVN | 0.169 ± 0.29
TVHSLV | -0.276 ± 0.38
TVHVGTVPKFSYRFGIMGTE | -0.482 ± 0.66
TVIEIKL | 1.28 ± 0.85
TVIYSNYAVICMGSMSQVDT | 7.762 ± 0.059
TVLNFKAQYRSSPMLAH | 0.862 ± 0.39
TVNHFGLEPCVTKIMGLY | 0.213 ± 0.74
TVNVY | 0.829 ± 0.62

Substance | amyloid nucleation score
TVNYTCYYGYIIFGYASSVK | 3.63 ± 0.076
TVPLEIIL | 0.382 ± 0.52
TVRCSMGYILYRWVHSRLGR | 1.4 ± 0.48
TVRFHYQGFTVS | -0.236 ± 0.61
TVRGSAFLIKWKLI | -0.86 ± 0.9
TVRLTRTRV | -0.474 ± 0.86
TVRNYHFVLV | 1.46 ± 0.33
TVSKLSCYNVVDPTIWNLSD | 0.236 ± 0.69
TVSLGVAAVMFPR | 0.95 ± 0.36
TVSMSMAYHVK | 2.27 ± 0.25
TVTGIAKFHVVSQANY | -0.3 ± 0.98
TVVTYVRNNFKEVHSCVEVS | -0.607 ± 0.47
TVYYFG | 1.18 ± 0.19
TWIKILSGPLYKFCI | -0.2 ± 0.56
TWIMIGDHFVAGLGYRERD | -0.893 ± 0.43
TWLQPLNRTMNWMTSTAGFR | inactive
TWNNKFRPLVEHGYSAS | -0.526 ± 0.85
TWSYGLASDEVGPDAVVIVY | 0.495 ± 1
TWYHGSRMSLRVTGRILQCG | -0.43 ± 1.1
TYALITADI | 0.193 ± 0.18
TYARLLNCSAYSTTF | 0.048 ± 0.55
TYDGSKAIVALSKGNKN | 0.915 ± 0.51
TYEYTRWGWYYLS | 1.11 ± 0.12
TYGEYRTYISYH | 0.389 ± 0.43
TYGMYFLFSYVSVCQY | 2.3 ± 0.13
